Several values for one entry are separate records, joined by “and”; a condition that tells them apart may be missing. Identical values can stand only once. Like-named read-outs stand apart in the source and are kept apart here. Side chains are listed from the residue outwards. Ends that are not written are not given here. Peptide text beside a SMILES is read from it. * marks the point of attachment. Biotin = O=C1N[C@H]2[C@H](CS[C@H]2CCCCC(=O)*)N1
Tests used:
OmpF (Escherichia coli) = OmpF (Escherichia coli) (UniProt P02931); assay: ITC; conditions: cited from earlier work
[1] = target: OmpF porin trimer (outer-membrane protein F) (Escherichia coli) (UniProt P02931); assay: single-channel electrical recording in planar lipid bilayer
[2] = target: OmpF porin trimer (outer-membrane protein F) (Escherichia coli) (UniProt P02931); assay: single-channel electrical recording in planar lipid bilayer; single OmpF trimer in a DPhPC bilayer; binder added to the extracellular side; -100 mV (as stated for Figures 2, 3 and 5); 20 mM potassium phosphate pH 6.4, 0.1 M KCl, 20.5 °C
[3] = target: OmpF porin trimer (outer-membrane protein F) (Escherichia coli) (UniProt P02931); assay: single-channel electrical recording in planar lipid bilayer; remark: listed apart in the source
OmpF [4] = target: T1, OmpF (Escherichia coli, UniProt P02931); type: binding; set-up: made in house; host or cells: E. coli BZB1107 (ompF-, ompC-), plasmid pNGH72; conditions: for k1 / k3 / k2 / k–1 / k–2 / k–3: extrapolated to 0 mV; for k1: DPhPC bilayer, 20 mM potassium phosphate pH 6.4, 0.1 M KCl, 20.5 °C, at least three independent experiments; for k3 / k2 / k–1 / k–2 / k–3: pH 6.4, 0.1 M KCl
T1 sequence (P02931 23-362): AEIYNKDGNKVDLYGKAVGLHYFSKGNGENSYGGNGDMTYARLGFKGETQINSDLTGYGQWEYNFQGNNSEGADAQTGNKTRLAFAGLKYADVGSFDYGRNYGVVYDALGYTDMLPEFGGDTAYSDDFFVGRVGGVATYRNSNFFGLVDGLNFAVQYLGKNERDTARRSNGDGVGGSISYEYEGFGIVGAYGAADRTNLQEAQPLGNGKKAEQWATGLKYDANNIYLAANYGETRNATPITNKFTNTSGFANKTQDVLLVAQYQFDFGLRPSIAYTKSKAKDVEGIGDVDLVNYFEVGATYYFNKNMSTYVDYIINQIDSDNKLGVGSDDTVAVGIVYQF

[5] = target: AEDANS-labelled OBS1-fusion protein (colicin E9 OmpF-binding site 1 fused to a carrier) (UniProt P09883); assay: stopped-flow FRET (OmpF tryptophans to AEDANS); conditions: pH 6.5, 4 °C, no added salt stated (20 mM potassium phosphate only)
AEDANS-labelled OBS1-fusion protein (colicin E9 OmpF-binding site 1 fused to a carrier), sequence (P09883 whole entry, the tested form may be a part): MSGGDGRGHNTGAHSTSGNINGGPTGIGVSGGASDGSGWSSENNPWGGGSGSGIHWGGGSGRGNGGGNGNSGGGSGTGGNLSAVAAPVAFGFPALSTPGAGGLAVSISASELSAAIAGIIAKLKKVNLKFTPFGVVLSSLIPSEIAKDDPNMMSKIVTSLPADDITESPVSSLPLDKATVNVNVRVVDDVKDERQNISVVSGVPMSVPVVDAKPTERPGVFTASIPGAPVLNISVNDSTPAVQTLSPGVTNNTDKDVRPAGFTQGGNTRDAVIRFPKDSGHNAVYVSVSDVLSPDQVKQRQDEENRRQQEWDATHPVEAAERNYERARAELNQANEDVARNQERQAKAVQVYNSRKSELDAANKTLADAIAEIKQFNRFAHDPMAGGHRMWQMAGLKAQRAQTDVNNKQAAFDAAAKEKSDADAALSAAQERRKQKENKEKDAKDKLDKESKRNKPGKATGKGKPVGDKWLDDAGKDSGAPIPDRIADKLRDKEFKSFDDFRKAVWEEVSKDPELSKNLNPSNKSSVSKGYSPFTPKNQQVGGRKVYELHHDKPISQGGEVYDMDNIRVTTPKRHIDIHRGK

OmpF [6] = target: T1, OmpF
[7] = Solubility of IUTD constructs; type: physicochemical
[8] = target: T2, OmpF porin trimer (outer-membrane protein F) (Escherichia coli, UniProt P02931 23-362); assay: single-channel electrical recording in planar lipid bilayer; single OmpF trimer in a DPhPC bilayer; mSA-capped peptide added to the periplasmic side; +100 mV (where stated); 20 mM potassium phosphate pH 6.4, 0.1 M KCl, 20.5 °C; conditions: both partners purified
T2 sequence (looked up): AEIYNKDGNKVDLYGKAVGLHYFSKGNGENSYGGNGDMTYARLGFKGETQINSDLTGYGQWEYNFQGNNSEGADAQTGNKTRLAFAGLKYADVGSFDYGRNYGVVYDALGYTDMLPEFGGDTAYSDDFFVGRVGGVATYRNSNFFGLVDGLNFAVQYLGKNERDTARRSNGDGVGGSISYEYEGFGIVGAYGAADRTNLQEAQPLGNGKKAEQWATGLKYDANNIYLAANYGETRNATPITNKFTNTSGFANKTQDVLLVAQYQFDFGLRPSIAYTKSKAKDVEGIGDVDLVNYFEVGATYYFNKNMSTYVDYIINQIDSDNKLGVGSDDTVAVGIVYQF

[9] = target: T2, OmpF porin trimer (outer-membrane …); assay: single-channel electrical recording in planar lipid bilayer; single OmpF trimer in a DPhPC bilayer; free peptide added to the periplasmic (trans) side, positive potentials; constants of Table 1 extrapolated to 0 mV, Kd for a single OmpF subunit; 20 mM potassium phosphate pH 6.4, 0.1 M KCl, 20.5 °C; conditions: both partners purified
[10] = target: T2, OmpF porin trimer (outer-membrane …); assay: single-channel electrical recording in planar lipid bilayer; single OmpF trimer in a DPhPC bilayer; free peptide added to the extracellular (cis) side, negative potentials; constants of Table 1 extrapolated to 0 mV, Kd for a single OmpF subunit; 20 mM potassium phosphate pH 6.4, 0.1 M KCl, 20.5 °C; conditions: both partners purified
[11] = target: T2, OmpF porin trimer (outer-membrane …); assay: single-channel electrical recording in planar lipid bilayer; single OmpF trimer in a DPhPC bilayer; free peptide added to the periplasmic (trans) side, positive potentials; constants of Table 1 extrapolated to 0 mV, Kd for a single OmpF subunit; 20 mM potassium phosphate pH 6.4, 0.1 M KCl, 20.5 °C; conditions: both partners purified; remark: listed apart in the source
[12] = target: T2, OmpF porin trimer (outer-membrane …); assay: single-channel electrical recording in planar lipid bilayer; single OmpF trimer in a DPhPC bilayer; free peptide added to the extracellular (cis) side, negative potentials; constants of Table 1 extrapolated to 0 mV, Kd for a single OmpF subunit; 20 mM potassium phosphate pH 6.4, 0.1 M KCl, 20.5 °C; conditions: both partners purified; remark: listed apart in the source
OmpF porin trimer [13] = target: T3, OmpF porin trimer (E. coli, UniProt P02931 23-362); assay: single-channel electrical recording in planar lipid bilayers; OmpF trimer with two subunits already occluded by untagged IUTD (added to the extracellular side at -100 mV, rest removed by buffer exchange); 1 µM peptide then added to the periplasmic side at +50 mV; conditions: both partners purified
T3 sequence (looked up): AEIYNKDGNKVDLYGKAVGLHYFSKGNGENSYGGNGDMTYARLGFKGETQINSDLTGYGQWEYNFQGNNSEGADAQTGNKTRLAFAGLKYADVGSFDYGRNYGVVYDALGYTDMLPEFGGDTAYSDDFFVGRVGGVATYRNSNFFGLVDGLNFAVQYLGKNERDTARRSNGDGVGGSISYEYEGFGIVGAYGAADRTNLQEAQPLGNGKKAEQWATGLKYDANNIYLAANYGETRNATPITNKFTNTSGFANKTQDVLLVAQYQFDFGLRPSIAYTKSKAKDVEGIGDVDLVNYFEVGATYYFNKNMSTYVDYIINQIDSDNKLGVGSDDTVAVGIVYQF

OmpF porin trimer [14] = target: T3, OmpF porin trimer; assay: single-channel electrical recording in planar lipid bilayers; current-voltage plots (-100 to +100 mV) of individual OmpF pores before and after addition of the binder to the extracellular side; conditions: both partners purified
[15] = target: T2, OmpF porin trimer (outer-membrane …); assay: single-channel electrical recording in planar lipid bilayer; single OmpF trimer in a DPhPC bilayer; binder added to the extracellular side; -100 mV (as stated for Figures 2, 3 and 5); 20 mM potassium phosphate pH 6.4, 0.1 M KCl, 20.5 °C; conditions: both partners purified
OmpF porin trimer [16] = target: T3, OmpF porin trimer; assay: single-channel electrical recording in planar lipid bilayers; single OmpF trimer in a DPhPC bilayer; peptide added to the extracellular side; phosphate buffer pH 6.4, 100 mM KCl; rate constants at 0 mV by extrapolation from negative applied potentials; Kd for the OmpF monomer (k-1 divided by one-third of k1); conditions: both partners purified
[17] = peptide from the extracellular side, ± s.d., at least three experiments
[18] = peptide from the periplasmic side, ± s.d., at least three experiments

## Colicin E9 OBS2 54-63 (from UniProt P09883)
OmpF (Escherichia coli)
  Kd: 24 µM

## IUTD-fusion (ColE9_(1–83)-TEV-E9 DNase·Im9His6) (from UniProt P09883 1-83; P13479 1-86) (complex)
[1]
  k01 (association with the first subunit, at 0 mV): 9800 M⁻¹ s⁻¹
  other: 181 s⁻¹
[2]
  effective molarity (EM): 0.9 mM
  koff (failed attempts at threading during the latency): 300 s⁻¹
[3]
  k21' (unbinding of OBS1 from the second subunit, at 0 mV): 3.9 s⁻¹
  other: 5300 s⁻¹

## CC[C@H](C)[C@H](NC(C)=O)C(=O)N[C@@H](Cc1c[nH]cn1)C(=O)N[C@@H](Cc1c[nH]c2ccccc12)C(=O)NCC(=O)NCC(=O)NCC(=O)N[C@@H](CO)C(=O)NCC(=O)N[C@@H](CCCNC(=N)N)C(=O)NCC(N)=O [OBS2_54–63] (Ac-IHWGGGSGRG-NH2)
OmpF [4]; OBS2 peptide, PLB recording
  higher affinity from the periplasmic side than from the extracellular side: 200 times
  slower dissociation when added to the periplasmic side than to the extracellular side: 4 orders of magnitude
OmpF [4]; peptide from the extracellular side, ± s.d.
  k1: 4.0 ± 0.60 10^6 M^–1 s^–1
OmpF [4]; peptide from the extracellular side, fewer events (<100), error relatively large
  k3: 0.97 ± 0.50 ^b 10^6 M^–1 s^–1
OmpF [4]; [17]
  k2: 2.2 ± 0.64 10^6 M^–1 s^–1
  k–1: 1.3 ± 0.10 × 10^4 s^–1
  k–2: 2.5 ± 0.34 × 10^4 s^–1
  k–3: 3.2 ± 0.47 × 10^4 s^–1

## Colicin E9 OBS1 2-18 (from UniProt P09883)
OmpF (Escherichia coli)
  Kd: 1.8 µM

## C[C@H](NC(=O)CNC(=O)[C@@H](NC(=O)[C@H](CC(N)=O)NC(=O)[C@H](Cc1c[nH]cn1)NC(=O)CNC(=O)[C@H](CCCNC(=N)N)NC(=O)CNC(=O)[C@H](CC(=O)O)NC(=O)CNC(=O)CNC(=O)[C@@H](N)CO)[C@@H](C)O)C(=O)N[C@@H](Cc1c[nH]cn1)C(=O)N[C@@H](CO)C(=O)N[C@H](C(=O)N[C@@H](CO)C(=O)NCC(N)=O)[C@@H](C)O [OBS1_2–18] (H-SGGDGRGHNTGAHSTSG-NH2)
OmpF [4]; peptide from the periplasmic side, ± s.d.
  k1: 9.6 ± 0.60 10^6 M^–1 s^–1
OmpF [4]; [18]
  k2: 6.1 ± 0.42 10^6 M^–1 s^–1
  k3: 3.2 ± 0.25 10^6 M^–1 s^–1
  k–1: 43 ± 1.5 s^–1
  k–2: 78 ± 3.9 s^–1
  k–3: 111 ± 6.6 s^–1

## OmpF porin (outer membrane protein F)
[5]
  k1 (association rate constant): 9.80 ± 0.31 μM^–1 s^–1
  k–1 (dissociation rate constant): 3.22 ± 0.03 s^–1

## ColE9_2–83-ENLYFQ [IUTD, intrinsically unstructured N-terminal translocation domain of ColE9, residues 2–83, released by TEV cleavage]
OmpF [6]
  k12′ (rebinding): ≈ 10^3 s^–1
OmpF [6]; SD
  Association with a first subunit: k01: 6.3 ± 1.9 104 M-1s-1 and 10 ± 4.1 104 M-1s-1
  Initial binding of the OBS1 sequence to a second subunit: k12: 58 ± 13 s⁻¹ and 38 ± 17 s⁻¹
  Rebinding of the OBS1 sequence to a second subunit: k12’: 2200 ± 270 s⁻¹ and 1400 ± 340 s⁻¹
  Unbinding of the OBS1 sequence from the second subunit: k21: 2.6 ± 1.1 s⁻¹ and 3.4 ± 0.7 s⁻¹
OmpF [6]; pH 6.4
  k01, association with the first OmpF subunit: ≈ 10^4 M^–1 s^–1
  k12, initial binding of OBS1 to the second OmpF subunit: ≈ 10 ^2 s^–1
  occlusion of OmpF subunits after addition to the extracellular side (in words): sequential occlusion of two OmpF subunits
[7]
  solubility: ≤ 5 µM

## C([HPDP-Biotin])GGSSGGSSGGSSIHWGGGSGRG (also: bound to monovalent streptavidin) [mSA–OBS2 (Biotin-HPDP-Cys-Linker-OBS2_(54-63) bound to monovalent streptavidin)]
[8]
  binding result: binds

## Ac-IHWGGGSGRG-NH2 [OBS2_(54-63) peptide (acetyl-OBS2_(54-63)-CONH2)]
[9]
  Kd: 60 µM
[10]
  Kd: 11000 µM

## H-SGGDGRGHNTGAHSTSG-NH2
[11]
  Kd: 13 µM
[12]
  Kd: 5000 µM

## SGGDGRGHNTGAHSTSGNINGGPTG-NH2 (peptide, UniProt P09883 2-26, looked up) [OBS1_(2-26) peptide (NH2-OBS1_(2-26)-CONH2)]
OmpF porin trimer [13]
  binding result: binds

B1: untagged IUTD (ColE9_(2-83)-ENLYFQ) (domain or fragment)
chain: SGGDGRGHNTGAHSTSGNINGGPTGIGVSGGASDGSGWSSENNPWGGGSGSGIHWGGGSGRGNGGGNGNSGGGSGTGGNLSAENLYFQ
OmpF porin trimer [14]
  binding result: binds

B2: free IUTD (ColE9_(2–83)-ENLYFQ) (domain or fragment)
chain: SGGDGRGHNTGAHSTSGNINGGPTGIGVSGGASDGSGWSSENNPWGGGSGSGIHWGGGSGRGNGGGNGNSGGGSGTGGNLSAENLYFQ
[15]
  binding result: binds

## SGGDGRGHNTGAHSTSG-NH2
OmpF porin trimer [16]
  Kd: 5400 µM

## SGGDGRGHNTGAHSTSGSSGGSSGGSSGGC([HPDP-Biotin]) (also: bound to monovalent streptavidin) [OBS1–mSA (OBS1_(2-18)-Linker-Cys-HPDP-Biotin bound to monovalent streptavidin)]
[8]
  koff: ~600 s⁻¹
  kon: ~5e+06 M⁻¹ s⁻¹

Reference: PMC7366379 (Journal of the American Chemical Society, 2020)
